Columns and labels:
[1] = test system: CD44 (predominantly standard isoform CD44s) on human TNBC cells (Homo sapiens (Cis-Pt-R, MDA-MB-231, BT-549 cells)), P16070-12; test: flow cytometry cell binding; conditions: apparent Kd on whole Cis-Pt-R cells; 2'-fluoro pyrimidines (2'F-Py) in the entire sequence; Flow cytometry: 150 nM Alexa 647-sTN58, serum-free medium, 0.1 mg/mL yeast tRNA, 0.1 mg/mL salmon sperm DNA, 10 min RT, after 30-fold excess unlabeled SCR …; cited from earlier work
[2] = test system: CD44 (predominantly standard isoform CD44s) on human TNBC cells (Homo sapiens (Cis-Pt-R, MDA-MB-231, BT-549 cells)), P16070-12; test: flow cytometry cell binding with siRNA knockdown; conditions: 150 nM aptamer, 2'-fluoro pyrimidines (2'F-Py) in the entire sequence, Flow cytometry: 150 nM Alexa 647-sTN58, serum-free medium, 0.1 mg/mL yeast tRNA, 0.1 mg/mL salmon sperm DNA, 10 min RT, after 30-fold excess unlabeled SCR …, scale: % reduction of binding on CD44 knockdown vs siRNA ctrl

Sequence of CD44 (predominantly standard isoform CD44s) on human TNBC cells (Homo sapiens (Cis-Pt-R, MDA-MB-231, BT-549 cells)), P16070-12 (P16070 other isoform, or with tags, fused parts or gaps): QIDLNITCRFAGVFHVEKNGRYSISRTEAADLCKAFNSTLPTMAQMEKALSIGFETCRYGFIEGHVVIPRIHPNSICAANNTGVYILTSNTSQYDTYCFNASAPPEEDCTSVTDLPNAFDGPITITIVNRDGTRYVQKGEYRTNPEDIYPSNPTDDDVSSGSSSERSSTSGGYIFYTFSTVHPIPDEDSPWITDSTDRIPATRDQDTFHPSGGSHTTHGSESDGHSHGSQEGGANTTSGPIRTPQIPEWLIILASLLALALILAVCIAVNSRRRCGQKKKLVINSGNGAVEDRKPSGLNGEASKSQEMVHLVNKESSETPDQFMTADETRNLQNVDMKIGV

GGACAUAUGAUGCAACGUUGUGGUCCCGUUUGCACUUUGUUUACG [sTN58]
Kd [1]: 10 nM | binding signal [2]: 55

From PMC12059597
